In publication PMC11301353 (iScience, 2024):

Experiments:
Test in all cases: site-directed spin labelling EPR
[1] = target: SET/TAF-Iβ D260C mutant, MTSL spin-labelled (UniProt Q01105-2 1-277, D260C, MTSL nitroxide spin label on Cys260)
[2] = target: SET/TAF-Iβ D226C mutant, MTSL spin-labelled (UniProt Q01105-2 1-277, D226C, MTSL nitroxide spin label on Cys226)
[3] = target: SET/TAF-Iβ E243C mutant, MTSL spin-labelled (UniProt Q01105-2 1-277, E243C, MTSL nitroxide spin label on Cys243)

Measured: binding result

B1: wild-type cytochrome c (natural protein)
chain: not shown
modifications: heme group (assembled by co-expressed yeast heme lyase); reduced state in ITC and EPR
binds: [1] | [2] | [3]
